The values below come from patent publication US7135457B1, “Random peptides that bind to gastro-intestinal tract (GIT) transport receptors and related methods” (Cytogen Corporation, priority 1997, dated 2006).

The target of one data set is T1, hPEPT1 (Homo sapiens, UniProt P46059).
T1 construct: 391-571; made in house
T1 sequence (P46059 391-571): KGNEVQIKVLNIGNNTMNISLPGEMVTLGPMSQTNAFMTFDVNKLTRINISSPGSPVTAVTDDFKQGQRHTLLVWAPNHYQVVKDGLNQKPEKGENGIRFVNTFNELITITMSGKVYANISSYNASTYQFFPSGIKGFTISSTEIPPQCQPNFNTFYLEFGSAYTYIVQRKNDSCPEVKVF
The data set is described as follows: Receptor ELISA of phage on hPEPT1. In kind it is binding. Particulars: Table 4; ratio. The method, then:
The plates were blocked for one hour with 0.5% BSA-PBS. After clarification, the amplified phage were diluted 1:100 in 1% BSA plus 0.05% Tween 20 in PBS and added to the plates. Following incubation of the plates on a rotator for 1 to 2 hours, the plates were washed 5 times with 1% BSA plus 0.05% Tween 20 in PBS. […] After the plates were washed 5 times, as described above, TMB substrate was added to the wells. The plates were read at 650 nm absorbance.

The target in the next data set is BSA (Bos taurus, UniProt P02769). Kind of data set: Phage ELISA on BSA (background control protein). The settings on record: Table 4. In kind it is binding. The procedure: 96 well plates were coated overnight with GIT receptor, BSA and, optionally, IDE (insulin degrading enzyme, an irrelevant His-fusion protein) or hTF. The plates were blocked for one hour with 0.5% BSA-PBS. After clarification, the amplified phage were diluted 1:100 in 1% BSA plus 0.05% Tween 20 in PBS and added to the plates. Following incubation of the plates on a rotator for 1 to 2 hours, the plates were washed 5 times with 1% BSA plus 0.05% Tween 20 in PBS. Dilute anti-M13-HRP conjugate (anti-M13 antibody linked to horse radish peroxidase (HRP)) was added to all the wells and the plate was incubated for one hour on a rotator. After the plates were washed 5 times, as described above, TMB substrate was added to the wells. The plates were read at 650 nm absorbance.
Sequence of BSA (P02769 25-607): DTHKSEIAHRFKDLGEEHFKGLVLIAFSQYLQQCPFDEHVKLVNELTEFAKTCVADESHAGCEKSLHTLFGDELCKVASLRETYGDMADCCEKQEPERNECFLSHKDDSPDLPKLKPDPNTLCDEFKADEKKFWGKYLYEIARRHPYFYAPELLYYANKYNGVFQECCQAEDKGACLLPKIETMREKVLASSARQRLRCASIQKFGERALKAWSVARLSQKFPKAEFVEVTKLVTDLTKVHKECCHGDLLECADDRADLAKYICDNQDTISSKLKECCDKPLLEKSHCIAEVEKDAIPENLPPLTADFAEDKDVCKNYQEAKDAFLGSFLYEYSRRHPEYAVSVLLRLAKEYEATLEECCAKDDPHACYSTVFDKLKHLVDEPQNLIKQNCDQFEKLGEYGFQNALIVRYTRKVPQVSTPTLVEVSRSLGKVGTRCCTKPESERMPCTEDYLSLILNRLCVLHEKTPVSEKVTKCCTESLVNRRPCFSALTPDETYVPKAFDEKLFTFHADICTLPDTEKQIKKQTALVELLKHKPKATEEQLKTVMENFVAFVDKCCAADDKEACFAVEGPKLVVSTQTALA

The procedure of data set [1]:
In particular, phages selected in vitro to each receptor or binding site located in the GIT were amplified in E. coli, PEG-precipitated, resuspended in TBS and the titer of each phage sample was determined by plaquing in E. coli as described above. […] Using the in situ loop model described above, 0.5 ml of preselected phage library solution was injected into the tied-off portion of the duodenum/jejunum. Blood was collected into heparinized tubes from the portal vein at 0, 15, 30, 45 and 60 minutes. A blood sample was taken from the systemic circulation at the end of the experiment. Similarly, the portion of the duodenum/jejunum used for phage injection was taken at the end of the experiment.
Thirty microliters of the collected portal blood (neat and 10^−2, 10^−4, 10^−6 dilutions) was added to 30 μl E. coli K91Kan cells (overnight culture) and incubated at 37° C. for 10 min. Subsequently, 3 ml of top agarose was added and the samples were plated for plaques. One hundred microliters of the collected portal blood was added to 100 μl of E. coli K91Kan. Five milliliters of LB medium was then added and the samples were incubated at 37° C. overnight in a rotating microbial incubator. The E. coli was removed by centrifugation and the amplified phage supernatant samples were either titered directly or were PEG-precipitated, resuspended in TBS and titered. Following titration of the amplified phage, samples containing phage from each set of animals were combined, adjusting the titer of each sample to the same titer, and were plated for plaques on LB agar plates (22 cm^2 square plates). Either 12,000 or 24,000 phage were plated for plaques.
Thirty microliters of the collected systemic blood (neat and 10^−2, 10^−4, 10^−6 dilutions) was added to E. coli K91Kan cells, incubated at 37° C. for 10 min. Three ml of top agarose was then added and the samples were plated for plaques. One hundred microliters of the collected systemic blood was added to 100 μl of E. coli K91Kan, incubated at 37° C. for 10 min. Five milliliters of LB medium was then added and the samples were incubated at 37° C. overnight in a rotating microbial incubator. The E. coli was removed by centrifugation and the amplified phage supernatant samples were either titered directly or were PEG-precipitated, resuspended in TBS and titered. Following titration of the amplified phage, samples containing phage from each set of animals were combined, adjusting the titer of each sample to the same titer, and were plated for plaques on LB agar plates (22 cm^2 square plates). Either 12,000 or 24,000 phage were plated for plaques. The intestinal tissue portion used in each closed loop was excised. […] Alternatively, the tissue (in PBS supplemented with protease inhibitors) was homogenized in an Ultra Thorex homogenizer, washed 3 times in PBS containing protease inhibitors and resuspended in PBS containing protease inhibitors (Int-G samples). In each case, serial dilutions (neat and 10^−2, 10^−4, 10^−6 dilutions) of the tissue homogenate was titered in E. coli.
The phage amplified from the portal blood, systemic blood and intestinal tissue was plated for plaques. […] The filters were air-dried, and the DNA was cross-linked to the filter (UV crosslinking: 2 min, high setting). The filters were incubated in pre-hybridization buffer (6×SSC, 5×Denhardt's solution, 0.1% SDS, 20 μg/ml yeast tRNA) at 40° C.-45° C. for at least 60 min.
Synthetic oligonucleotides, (22-mers), complimentary to regions coding for the receptor or binding sites used to create the preselected phage library, were synthesized (see Table 14 below).
The oligonucleotides (5 pmol) were 5′ end labelled with ^32P-ATP and T4 polynucleotide kinase and approximately 2.5 pmol of labelled oligonucleotide was used in hybridization studies. […] The filters were air-dried and exposed for autoradiography for 15 hours, 24 hours or 72 hours.
Hybridization data for pools from each receptor group of rats was compiled.

A short description of data set [2]: Drug potency, peptide loading and size of coacervated particles. Particulars: formulation 1 particles (coacervation), blend. Type of data set: physicochemical.

Take “RGSTGTAGGERSGVLNLHTRDNASGSGFKPWYPSNRGHK [Peptide 5PAX5]”: in the data set with hPEPT1, the PEPT1/BSA was 4. In the data set with BSA, this sequence showed a BSA of 0.036 OD. The “presence in the systemic circulation (in words)” value in data set [1] (text summary of HPT1 and hPEPT1 pools) was “found in the systemic circulation”. In addition, the “transport from the GIT closed loop into the portal circulation (in words)” value in data set [1] (text summary of hSI, D2H, HPT1, hPEPT1 pools) is listed as “not found in the portal blood”. Further, the “presence in the intestine samples or fractions (in words)” value in data set [1] (text summary of the four pools) was “not found in the intestine samples”. Also, the “Insulin (insulin potency)” value in data set [2] (coated with the named peptide) was 52.7 mg/g. In data set [2] (measured by fluorescence), the “Peptide (level of peptide coated onto the particles)” value is 2.83 µL/mg.
